This passage reports protein stability index results from the supplement of paper PMC10724198.

± gives the standard deviation of the averaged measurements.
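Also: PSI is a weighted mean of sequencing reads over stability bins, variants kept only with over 10 reads, mCherry proximal and sfGFP distal, peptide attached via GGGS linker.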

The test system of this series is Saccharomyces cerevisiae. The series is described as follows: protein stability index of tFT-peptide fusion (C-terminal peptide) (PSI (0-1 scale)); higher = more stable (slower turnover). The conditions noted are these: genetic background: wild type; temperature: 30 C.
As for RCGGEWTGGVWR, the protein stability index worked out at 0.845 ± 0.22. As for RCGGGKWGRGAE, the protein stability index is 0.69683 ± 0.00067. RCGPPTAPSLDP yielded a protein stability index of 0.619 ± 0.008. With RCPLSFLRCSMA the figure was 0.586 ± 0.018. Next, RCPPLWNPLSPL: 0.697 ± 0.034; RCPPPQPPVRKV: 0.642 ± 0.1.

On to RCPRSPPQPLWT, for which the protein stability index was 0.731 ± 0.03. With RCSCNKNGFSSN the figure was 0.607 ± 0.2. Next, RCSLLVVPHSPP: 0.717 ± 0.04. Next, RCYSFTKIRNNL: 0.718 ± 0.13; RDAVLSCARRSQ: 0.752 ± 0.17; RDCSGGRRGLER: 0.601 ± 0.023. The sequence RDDDSKDKRTEI showed a protein stability index of 0.684 ± 0.065. For RDLLPRWTWIIW, the protein stability index was 0.76 ± 0.11. Sequence RDPDTWKLFSLT displayed a protein stability index of 0.687 ± 0.043. With RDPPLPRRLPSL the figure was 0.706 ± 0.058; with RDRMSEGLGDRS, 0.684 ± 0.059.

RDSLEKCLFEVQ yielded a protein stability index of 0.703 ± 0.05. With RDSQSGVVVKGT the figure was 0.726 ± 0.024.

RDTHSEPKPAQY returned a protein stability index of 0.721 ± 0.0088. In the case of RDVRNRARVKRE, the protein stability index worked out at 0.693 ± 0.012. Next, REEFHGLKGRGG: 0.671 ± 0.046; REEGGWGEAWRE: 0.726 ± 0.049. Turning to REGALVYWGFLG, the protein stability index was found to be 0.652 ± 0.018. On to REKQRYEERLRE, for which the protein stability index was determined as 0.636 ± 0.018.

RERTNKKLAKDK had a protein stability index of 0.656 ± 0.045. With RESGASLWATMR the figure was 0.734 ± 0.015. RESRGAGGGEGG displayed a protein stability index of 0.667 ± 0.033. For the sequence RESVSPCLVGAV, the protein stability index came out at 0.616 ± 0.056. With REWRLVTCSDCL the figure was 0.668 ± 0.023. RFAGLRDVGCFL: the protein stability index was found to be 0.695 ± 0.034.

In the case of RFGRGAVWGLGG, the protein stability index came out at 0.6554 ± 0.0051. For RFINRVVAGDRR, the protein stability index was 0.681 ± 0.032. With RFLLSITSSLVL the figure was 0.666 ± 0.043; with RFLVRSFIGWRG, 0.669 ± 0.031; with RFPFGPAPPPTP, 0.744 ± 0.042. Next, RFSMVVVERYSC: 0.577 ± 0.0062. Next, RFSVRGARHRCG: 0.693 ± 0.0079; RFTIPFSVQRVD: 0.721 ± 0.094; RFYFSLSWSGFC: 0.66 ± 0.077.

RFYLLAEDGSST: the protein stability index is 0.703 ± 0.017. RFYSKDLVHLST gave a protein stability index of 0.6656 ± 0.0031. With RGALGVVWSGLD the figure was 0.637 ± 0.023.

RGARGGRLVCRE had a protein stability index of 0.689 ± 0.043. With RGARGGSRGGGG the figure was 0.677 ± 0.086; with RGARPRTPPSPP, 0.713 ± 0.03; with RGCGGGRVAREC, 0.689 ± 0.051. With RGCGKGPLLSWF the figure was 0.717 ± 0.0093; with RGCRLRCSLPGR, 0.669 ± 0.056. RGCSAVEKARPC displayed a protein stability index of 0.622 ± 0.0067. Next, RGGCLPTCPQET: 0.652 ± 0.026.

RGGGEGGKEDSQ displayed a protein stability index of 0.682 ± 0.047.

As to RGGGGGGDCVGA, the protein stability index came to 0.727 ± 0.018. For RGGGRDGQTRGV, the protein stability index was found to be 0.6165 ± 0.0045. With RGGGVRYGVARR the figure was 0.68 ± 0.059; with RGGRLQVGMEAV, 0.6653 ± 0.0022. RGGRMGFYLVCI yielded a protein stability index of 0.636 ± 0.028. As to RGGSVDCRGNPL, the protein stability index came to 0.656 ± 0.013. As to RGGVFGTCGVGG, the protein stability index is 0.653 ± 0.035. The sequence RGGWYLQKAITP had a protein stability index of 0.716 ± 0.047.

RGHPRRRPERKA returned a protein stability index of 0.707 ± 0.09. Next, RGHTTYCGPALI: 0.697 ± 0.08. Next, RGIGIQSVAARN: 0.723 ± 0.094; RGIRDQRKSKDK: 0.663 ± 0.029; RGIYSIGASGRS: 0.695 ± 0.033. Next, RGLGCEVGTVEV: 0.768 ± 0.0077; RGLPVLTFPHTP: 0.71 ± 0.0095; RGLRVWWGLVGV: 0.633 ± 0.044. As to RGPRSSGRKGIR, the protein stability index was determined as 0.676 ± 0.042. Consider RGQDGSEGRGPA, for which the protein stability index worked out at 0.653 ± 0.02. Next, RGQSGSLSKLLG: 0.72 ± 0.026; RGRAVGGARKFG: 0.739 ± 0.029.

RGRFVVGAGRED displayed a protein stability index of 0.67 ± 0.077. Next, RGRGGGGVVGRW: 0.7119 ± 0.0022; RGRGKVGLWEGS: 0.669 ± 0.067. With RGRMGLGAPGGG the figure was 0.615 ± 0.0085; with RGRPRRGGGVSG, 0.727 ± 0.047. With RGSAPLFVPLSP the figure was 0.7106 ± 0.0069; with RGVLRSETCRLS, 0.7104 ± 0.0069; with RGWGWGRKVSVG, 0.62 ± 0.069.
